From PMC3686915

Molecular target: NFATc2 full length;cJun full length (;, UniProt Q13469-2;P05412 1-921;1-331, |)
Experiment: DNA pull-down, Western blot

Binder: GATAATATTTTTCCAGAATTACACAAATTCTGGAAAAATATTATC (structured_DNA, 5' biotin) [-45 NFAT hairpin]
- binding result: binds
